Measured values published in a protein production outcome set (Wang et al. 2014).

Test: label from the status in PepcDB records

Sequence | protein production
MDAKHIEKVFVKKVPAKSNKAQVKYPFDENSVNVLIIGLDKASNRSTYDLHRTDTILFLNINFKDKKVKGISIPRDTLTEIYKVGKWDKINSAFGYGGGEKEEGFFYTMETVSKLLGGMPIEYYVGFDLDAVRKVVNILGGVYVNVEVPVKVKTKWVNIDLKPGYQKLNGIETLYYALWRKTPGGDIDRIKRDKELILSVFEQLKESNKIITLPEIYWKIRRHFYTNLSLQQITSLAYFAQNMKKEDIVFESIPGDYFNYMGVSYWKPDYEGIKKLVKDLFGYDIEIDLKMPEKYKYARRIIVKAKKENNISYLEHHHHHH | not failed
GERCEPIELLSINLPEESSSRIIDIVTRRKGEMVMMENKNDRVFMEFHIPSRGIIGLNNAVLTASAGEAVIAHRFLEFQPWKGEIERRSNGSIIALESGTAYAYALNNLQSRGRFFISPQEEVYAG | failed
MARLILERFLQEHEETPPSKSIINSMLRDPSQIPDGVLANQVYQCIVNDCCYGPLVDCIKHAIGHEHEVLLRDLLLEKNLSFLDEDQLRAKGYDKTPDFILQVPVAVEGHIIHWIESKASFGDECSHHAYLHDQFWSYWNRFGPGLVIYWYGFIQELDCNRERGILLKACFPTNIVTLCHSIA | failed
MRISCMSSFLTSDVLIAFSVTFLAGLATLLGGAIVLFFKQPSLRLLSFGLAFSAGAMVYISLTEILNKSIHSFSEVFSAKVGFAFATFAFLTGVIAILLLDRCVPNPHTMLEKTTAQQLDQTQLRRTGLLTMLAITAHNFPEGLATFFATLDSPILGAPLAVAIAIHNIPEGIAIAVPVYMATGQKSYAIWASLLSGLAEPLGAALGYFILAPYMGATMYGIIFGLIAGVMVYLAMDELLPAAKKYSQGHETVYGLVTGMAALATSLVLFQWV | failed
WRTIFNAEPECVMIVATDGTLLDINPAGVAAIEADSVGAVIGKRVYSLVVPECQQAFRQLNESVCQGKQGTLEFEIITCRGNRRWMATHAVPVRNEKDGNLVQLSI | failed
MTMLQIVGALILLIAGFAILRLLFRALTSTASALAGFILLCLFGPALLAGYITERITRLFHIRWLAGVFLTIAGMIISFMWGLDGKHIALEAHTFDSVKFILTTALAAGLLALPVQIRTIQQNGLTPEDISKEINGYYCCFYTAFFLMACSAYAPLIALQFDISPSLMWWGGLLYWLAALVTLLWAASQIQALKRLTSAISQTLEEQPVLNSKSWLSSLQNDYSLPETLTERIWLTLISQRISRGELREFELADGNWLLDNAWYERNMAGFNEKLRESLSFTPDELKTLFRNRLNLSPEANDDFLDRCLDGGDWYPFSEGRRFVSFHHVDELRICASCGLTEVHHAPENHKPDPEWYCSSLCRETETLCQDIYERSHTGFISDATANGLILMKLPETWSTNEKMFASGGQGHGFAAERGNHIVDRVRLKNARILGDNNARNGADRLVSGTEIQTKYCSTAVRSVGAAFDGQNGQYRYMGNHGPMQLEVPRDQYAGAVETMKNKIREGKVPGVTDPAEASRLIRRGHLTYTQARNITRFGTIESVTYDIAEGSVVSLAAGGISFALTTSVFWLSTGDRDAALQTAAVQAGKTFTRTLAVYVTTQQLHRLSVVQGMLKHIDFSTASPTVRQALQKGTGAGNISALNKVMKGTLVTSLALVAVTTGPDMIKMLRGRISGAQFIRNLAVASSGVAGGAVGSVAGGILFSPLGPFGALTGRVVGGVLGGMIASAVSGKIAGALVEEDRVKILAMIQEQVTWLAGSFLLTGHEIENLNANLARVIDQNALEIIFAAGIQQRAATNMLIKPLVVSIIRQRPVMEYDASHLGNMVNRLEETLPPELPA | failed
MEVNRLSALTPPMGWNSWDCYGASVTEEEVLGNAEYMANHLKKYGWEYIVVDIQWYEPTANSSAYNPFAPLCMDEYGRLLPATNRFPSAKNGAGFKPLSDAIHDLGLKFGIHIMRGIPRQAVYENSPVLGSTKTAREIAHTNSICPWNTDMYGVDPTKEGAQSYYNSLFELYAQWGVDFVKVDDIAASRLYDTHLEEIKMIQRAIQACGRPMVLSLSPGPAPIKYAHHFKTNANMWRITDDFWDDWSLLYQMFERCEVWEKHIGTGHWPDCGMLPLGHIGIRSVDGPGGDRWTRFTKDEQLTMMNLWAICHSPLMFGGELRDNDEWTLSLLTNEGILSINQKSVLNRFVYREEDKVAWAANGRNGEAYVALFNLHDQQKTLQFRLDMVGIMETVQLFNVWDRSFLQSLAPSESFQIELKPHQSMMLKLSPDR | not failed
MFSNQYIQQRIHKANSLREEGKNPYQNGLKRSLTNAAFLEKYAYVKGLEEPKDKEKCESIVGRVKLLRLMGKACFIKVEDESTILQVYVSQNELNDEFKSLKKHLEVGDIVLVKGFPFATKTGELSIHALEFHILSKTIVPLPEKFHGLSDIELRYRQRYLDLIVNPSVKDVFKKRSLIVSSVRKFFEMEGFLEVETPMMHPIPGGANARPFITYHNALEVERYLRIAPELYLKRLIVGGFEAVFEINRNFRNEGMDHSHNPEFTMIEFYWAYHTYEDLIELSKRLFDYLLKTLNLDSKIIYNDMEVDFNQTSVISYLDALETIGGISKDILEKEDRLLAYLLEQGIKVEPNLTYGKLLAEAFDHFVEHQLINPTFVTQYPIEISPLARRNDSNPNIADRFELFIAGKEIANGFSELNDPLDQLERFKNQVAEKEKGDEEAQYMDEDYVWALAHGMPPTAGQGIGIDRLVMLLTGAKSIKDVILFPAMRPVKNDFNVESEE | failed
TWILTADSPSLLGTVDVVTRYLFEQRCYVTEHHSFDDRLAQRFFIRVEFRAGDGFDEASFRAGLAERVAPFGMRTELTAPGYRSQVAIMVSKADHCLNDLLYRQRIGQLPMDVVAVISNHPDLEPLARWHGIPYHHFPLDPNDKPAQEARVWQVLEESGAELVILARYMQVLSPELCRRLDGWAINIHHSLLPGFKGAKPYHQAYQKGVKLVGATAHYINNDLDEGPIIAQGVETVDHAHYPEDLIAKGRDIECLTLARAVGYHIERRVFLNANRTVVL | failed
MMKCTALIVTFNRLEKLKKSVRETVKAGFSSIVIVNNGSSDGTREWLSSLSEPGITILNLKDNLGGAGGFKVGSQYICSYSNADWVFFYDDDAYPEINILKHFSLLDTSRYRIFASRVQDTYGRSCRMNLPFIRVPSTVFETIYYAMRPERFSPVRTQVTDVQTVSFVGMIIDRKVLNNHLNDIHDELFLYYDDFFFGYKLVLSGQKIRYSPEIKFIHDISIHGKCICPEWKVYYLCRNLLLLRKLLPVPRIFSVLSIVLRLSKYLAILPWQRKKFRYLYFIWQGILHGLKGISGKYH | failed
WQPATERLQVTYLGKVSTTGMQFLSGCTEKPVIELWKKHTLAREDVFPANALLEIRPFQVWLHHLDHKGEATVHMDTFQVARIAYCTADHNVSPNIFAWVYREINDDLSYQMDCHAVECESKLEAKKLAHAMMEAFRKTFHSMKSDGRIH | failed
MKNLLKRYVSIKNIIKVIELDFFANLKLRYYKLAMKLFKIEDEKFDEILLKAGMNAVSSTYLPVVFLTSIILGLIIFIIFLIVFNIFYAIFGLIGGIFIVILIGVLYPYVLAEEKAKSIDENLPYAFAFISALSSANIPVVEIFTSLSKEDIYGGMSKEAKEIVKDTKVFNYDIITTFLRRARITPSKKLSSVYYNIVASLIVGAEMKNIFHEIYERLMEDRKLELFEAIEKVEILSEFYVIACGMIPLFVVMTVPVASSISAILQTASLFGDPKLLPLTFYLWVPIASIIFMGLVYGILPKDFKLNVSLLDVLKEFDEPEIEGIKMKFKWKPVHFITLFFWMLSIISFMLFFIRKSIFKFHGTDFLMFGILFLILPFILTSYWHFIIENQKERYYPIFLNDLTMAVRSGMDIIRAMQVCARTNYGPLTKIVKKMAIQMSWGRPVNEVFADLERTEKSLIAKRIASILKECAVSGGDVKDILTSVTVHAYKLSEMKREISARQFIYVVVIYLSFFLYIGTSYIMVHSLLPTLLKNIHGLSVEFYKNYLFQGILIYSIFSGASLGILTERSIIAGIKHILLMLIVGYMLFKFYIGG | failed
MGSSHHHHHHSSGLVPRGSHMFKLTPAAAEQVLKAAKQGGTEGMCLRLAAGRNPDGSIDYRMGFDDLTEDDIRLTSEGVEIVIAPDYVSLLDQTTLDYVELEPGQFHFIFLNPRDPTYRPPSGG | not failed
MKKLLLSLTLTVLLGLLGRPAIAANYEIKLVDEGVFAAIALPEGKAASNALIIITPHQVILAGAHFVPEGIKELIADIAEITPLPLRSVILTHHHKGFNYVDFDFPANVEIITSWQTWQALKAETRPLRNPVTFFEKGLTLLRSNTTIVLSSADFGHTEGDVFLFLPNEGILFASDLFYNDVVGYMGEGHMRDWVITLETLEAVGAQYVVPGLGQVTDRSGLRRFRLFFKDFLTEVLRHMEAGKTLAETKKLFRLPAHEGMPGYKAFLDVNLDRAYQDLRDQ | failed
MTKKTGFFKRLKALTLPQKQLFATALCQRMLPNYQLFSEVCEFGDPAVLSTALELLWQSLYDPKLKFNIDVHLQRLEDNTPEPADFEAYGVYPAMDAVVAISTLLGAIQGKIEEDIVNISKLSSSTVANYIEAISDVDLVDEALDDFVFAHEVMEEEKELQNSLLEIIEENPKITAELVKGLRKDIIETGVSNIGISVA | not failed
MAGRRLIIGDVHGHYRSLYRLLELADPDTDDQVYCLGDLIDRGPDSAKVVALVRSQGYTSLMGNHEHLLSQVLAFPDLSELRLHWFQAGGQATLASFGSWEALEELRPWLQQLPLYLDLGEIWLVHAGVDPDLPLSRQDANEFCWIRDQFLARSQPFFANKTILVGHTITCTMAGIQPGYVAAGAGWLGLDTGVYHPRSGWLTALDWDNQRVFQVQAQSNETRVCDLAERLQTVLSNPAKGRRSLLRYPRDQVSPS | failed
MEIYLVFVDAASNSNKFWTAKVEQNQLTVQWDRVGYKAQTKVHQFTSQAQAANKYNNLVFEKKAKGYQESQPQIESCGVVDIRRAMQLLNGLRSYVTNRNFNADYINLLNQYLKIIPTPLGMQLEPYRIFTSVADVDHQRELLSSLIPATPVAVTQAKQMPESQEKIVSLRGIHKNLWRHFLEHHHHHH | failed
MRADTRDFRALFLGDAPLLDTRAPVEFAKGAFPGAVNLPLMSDAERHKVGLCYKQQGQDAAIALGHRLVSGAVKAERVAAWAAFAQAHPEGYLYCFRGGLRSQISQAWLREEAGIAYPRVIGGYKAMRGFLLETIEQAIAEC | failed
MAIKVGINGFGRIGRSFFRASWGREEIEIVAINDLTDAKHLAHLLKYDSVHGIFKGSVEAKDDSIVVDGKEIKVFAQKDPSQIPWGDLGVDVVIEATGVFRDRENASKHLQGGAKKVIITAPAKNPDITVVLGVNEEKYNPKEHNIISNASCTTNCLAPCVKVLNEAFGVEKGYMVTVHAYTNDQRLLDLPHKDFRRARAAAINIVPTTTGAAKAIGEVIPELKGKLDGTARRVPVPDGSLIDLTVVVNKAPSSVEEVNEKFREAAQKYRESGKVYLKEILQYCEDPIVSTDIVGNPHSAIFDAPLTQVIDNLVHIAAWYDNEWGYSCRLRDLVIYLAERGL | not failed
MVKRANTFAMRPLTADDEQVLRDLLDASAALWNEINYQRLMRYNDKDGFEDEDVWDADTGALEGKYKAVLGASTAQTVRRANTEAWRSFFRLKKQFHDESNTSVTEHPEPPGFRGNKDDGRVLKGVVRKDAYSVEWGDRSRLEMVVGEQLRDRHNSPKSRLRLEIVGDPNWSDYEDQGRLELWYDETDCTFRASQPVTVSDDARATPLANEKAALDIGANNLVACTTTTGQQYLYEGRELFQRFRETTREIARLQSKLPEGRYSSKRIRRLYRKRTRRRDHAQETLCRDLLEQLYGEGVDTVYIGGLTDVLETHWSAETNAKTHNFWAFKQFTERLAWTADEYGISVEVRSEAWTSQECPQCGSTDRTTRQQDTLTCPCGFEGHADVTASETFLERHTEKAVRPMARPVRFEWDDHEWSESPRSPARESPKEQRTDPSTVPRDGNVVSGDSLEHHHHHH | failed
MHYHGSCHCGTIRFDVEGELTGAMSCNCSICRRKGALLWFVPRDHLRLATPDEQIATYTFNRHLIKHRFCPTCGIHTHGEGVDQQGRAMAAINIRCLDDVDLDAVAVHQYDGRAA | failed
